Measurements reported in US20150368661A1 (UNIVERSITY OF LOUISVILLE RESEARCH FOUNDATION, published 2015).
Read-outs that look alike come from different tables or passages of the source.

What was measured:
[1] = target: T1, HIV-1 Env of strain Q769.h5 (clade A) on Env-pseudotyped virus (HIV-1 Q769.h5 (clade A)); assay: cell-based or functional assay
[2] = target: T2, HIV-1 Env of strain SS1196.1 (clade B) on Env-pseudotyped virus (HIV-1 SS1196.1 (clade B)); assay: cell-based or functional assay
[3] = target: T3, HIV-1 Env of strain Du156 (clade C) on Env-pseudotyped virus (HIV-1 Du156 (clade C)); assay: cell-based or functional assay
[4] = target: T4, HIV-1 Env of strain SF162 (clade B) on Env-pseudotyped virus (HIV-1 SF162 (clade B), UniProt P19550 32-847); assay: cell-based or functional assay
[5] = target: T5, recombinant gp120 from HIV-1 DU156 (clade C) (HIV-1 DU156 (clade C)); assay: gp120-ELISA, plate coated with recombinant gp120, non-linear regression
T5 construct: domain: gp120; also called gp120DU156

[6] = target: T6, recombinant gp120 from HIV-1 Q769.H5 (clade A) (HIV-1 Q769.H5 (clade A)); assay: as above
T6 construct: domain: gp120

[7] = target: T7, recombinant gp120 from HIV-1 SF162 (clade B) (HIV-1 SF162 (clade B), UniProt P19550 32-502); assay: gp120-ELISA, plate coated with recombinant gp120, non-linear regression; VRC01p (plant-produced)
T7 construct: domain: gp120; also called gp120SF162

[8] = target: T7, recombinant gp120 from HIV-1 SF162 …; assay: VRC01p (plant-produced)
[9] = target: T1, HIV-1 Env of strain Q769.h5 (clade A) …; assay: cell-based or functional assay; remark: listed apart in the source
[10] = target: T2, HIV-1 Env of strain SS1196.1 (clade B) …; assay: cell-based or functional assay; remark: listed apart in the source
[11] = target: T3, HIV-1 Env of strain Du156 (clade C) on …; assay: cell-based or functional assay; remark: listed apart in the source
[12] = target: T4, HIV-1 Env of strain SF162 (clade B) on …; assay: cell-based or functional assay; remark: listed apart in the source
[13] = target: T7, recombinant gp120 from HIV-1 SF162 …
[14] = target: T7, recombinant gp120 from HIV-1 SF162 …; assay: gp120-ELISA, plate coated with recombinant gp120, non-linear regression

B1: VRC01p (Nicotiana benthamiana plant-expressed anti-HIV-1 bnMAb VRC01 IgG1 from the L-(KP6pp)-H construct) (antibody)
light: EIVLTQSPGTLSLSPGETAIISCRTSQYGSLAWYQQRPGQAPRLVIYSGSTRAAGIPDRFSGSRWGPDYNLTISNLESGDFGVYYCQQYEFFGQGTKVQVDIKRTVAAPSVFIFPPSDEQLKSGTASVVCLLNNFYPREAKVQWKVDNALQSGNSQESVTEQDSKDSTYSLSSTLTLSKADYEKHKVYACEVTHQGLRSPVTKSFNRGECGGK
heavy: not shown
notes: also called plant-produced VRC01; VRC01p IgG1
VRC01p IC50 (µg/ml), HIV-1 neutralization [1]: 0.17 µg/mL | VRC01p IC50 (µg/ml), HIV-1 neutralization [2]: 1.32 µg/mL | VRC01p IC50 (µg/ml), HIV-1 neutralization [3]: 0.14 µg/mL | VRC01p IC50 (µg/ml), HIV-1 neutralization [4]: 0.04 µg/mL | EC50 [5]: 67.9 µg/mL | EC50 [6]: 0.35 µg/mL | EC50 [7]: 4.11 µg/mL | Kd [8]: 3.97 nM | IC50 (µg/ml) for VRC01p alone, HIV-1 neutralization, TZM-bl cells (VRC01p:GRFT series) [9]: 0.37 µg/mL | IC50 (µg/ml) for VRC01p alone, HIV-1 neutralization, TZM-bl cells (VRC01p:MVC series) [9]: 0.54 µg/mL | IC50 (µg/ml) for VRC01p alone, HIV-1 neutralization, TZM-bl cells (VRC01p:TFV series) [9]: 0.47 µg/mL | IC50 (µg/ml) for VRC01p alone, HIV-1 neutralization, TZM-bl cells (VRC01p:GRFT series) [10]: 2.61 µg/mL | IC50 (µg/ml) for VRC01p alone, HIV-1 neutralization, TZM-bl cells (VRC01p:MVC series) [10]: 2.22 µg/mL | IC50 (µg/ml) for VRC01p alone, HIV-1 neutralization, TZM-bl cells (VRC01p:TFV series) [10]: 2.14 µg/mL | IC50 (µg/ml) for VRC01p alone, HIV-1 neutralization, TZM-bl cells (VRC01p:GRFT series) [11]: 0.25 µg/mL | IC50 (µg/ml) for VRC01p alone, HIV-1 neutralization, TZM-bl cells (VRC01p:MVC series) [11]: 0.26 µg/mL | IC50 (µg/ml) for VRC01p alone, HIV-1 neutralization, TZM-bl cells (VRC01p:TFV series) [11]: 0.23 µg/mL | IC50 (µg/ml) for VRC01p alone, HIV-1 neutralization, TZM-bl cells (VRC01p:GRFT series) [12]: 0.98 µg/mL | IC50 (µg/ml) for VRC01p alone, HIV-1 neutralization, TZM-bl cells (VRC01p:MVC series) [12]: 0.5 µg/mL | IC50 (µg/ml) for VRC01p alone, HIV-1 neutralization, TZM-bl cells (VRC01p:TFV series) [12]: 0.65 µg/mL

B2: VRC01HEK (HEK293F cell-produced bnMAb VRC01) (antibody)
light: EIVLTQSPGTLSLSPGETAIISCRTSQYGSLAWYQQRPGQAPRLVIYSGSTRAAGIPDRFSGSRWGPDYNLTISNLESGDFGVYYCQQYEFFGQGTKVQVDIKRTVAAPSVFIFPPSDEQLKSGTASVVCLLNNFYPREAKVQWKVDNALQSGNSQESVTEQDSKDSTYSLSSTLTLSKADYEKHKVYACEVTHQGLRSPVTKSFNRGEC
heavy: not shown
notes: also called human cell-produced VRC01; human cell-derived bnMAb
Kd [13]: 3.82 nM | EC50 [5]: 15.1 µg/mL | EC50 [14]: 4.24 µg/mL | EC50 [6]: 0.28 µg/mL
